{"source": "the supplement of paper PMC9732359", "note": "± gives the uncertainty stated by the source."}
{"assay": "protein stability index of a GFP-peptide fusion (yeast GPS) (PSI 1-4); higher = more stable; sorted into four equal gates, so the index is relative within each strain", "conditions": "pdr5∆", "method_in_brief": "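Each library plasmid carries Cherry plus GFP with a tiled 17-residue yeast protein peptide fused downstream, and the pooled library was carried in yeast. Mid-log cultures in leucine-free medium were sorted into four equal gates by GFP/Cherry ratio. Reads from Illumina sequencing of PCR-amplified plasmids from each gate were assigned to strains by barcodes. Per peptide, the protein stability index was computed as the summed products of gate read frequency and gate number.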"}
{"sequence": "GKNVINRERFISKLFLR [SMD2]", "protein stability index": "1.69 ± 0.067"}
{"sequence": "GKPHFSLLGGFDENIAR [PCI8]", "protein stability index": "2.91 ± 0.12"}
{"sequence": "GKQVFSLLIKPNHNSPV [RPO31]", "protein stability index": "3.33 ± 0.28"}
{"sequence": "GKRIAYVYRASKEVRGS [RPL33A]", "protein stability index": "2.57 ± 0.08"}
{"sequence": "GKRQVLIRPSSKVIIKF [RPS22A]", "protein stability index": "2.4 ± 0.046"}
{"sequence": "GKTIVVKDLGQGLKLAK [SMC3]", "protein stability index": "2.92 ± 0.15"}
{"sequence": "GLFGANSNSNSGSLFGS [YGL172W/NUP49]", "protein stability index": "1.7 ± 0.14"}
{"sequence": "GLGMISASHILIPASDL [PRP8]", "protein stability index": "2.41 ± 0.043"}
{"sequence": "GLGVLTHRNKDGTGVRV [FAS1]", "protein stability index": "2.47 ± 0.094"}
{"sequence": "GLHKFVKGDLLQEAIDF [PRE10]", "protein stability index": "2.83 ± 0.079"}
{"sequence": "GLIAARRTGLLRGSQKT [RPL2A]", "protein stability index": "3.08 ± 0.11"}
{"sequence": "GLKYALATGNWGEQKKA [RPB2]", "protein stability index": "2.85 ± 0.075"}
{"sequence": "GLRVRGQHTKTTGRRRA [RPS18A]", "protein stability index": "2.33 ± 0.066"}
{"sequence": "GLSLAGLAPDARVLSNY [PRE5]", "protein stability index": "1.58 ± 0.1"}
{"sequence": "GLSQTEAFGNIKIDAKP [MCD1]", "protein stability index": "2.87 ± 0.15"}
{"sequence": "GLTLSTTNLDIDLLTFQ [RPP1]", "protein stability index": "3.04 ± 0.06"}
{"sequence": "GLVNHRVGVKLKFNSTE [SMX3]", "protein stability index": "2.24 ± 0.04"}
{"sequence": "GNGEGLGGDSDEANIEI [BRN1]", "protein stability index": "3.48 ± 0.27"}
{"sequence": "GNILDFNLNLPPSSFGR [REC8]", "protein stability index": "3.24 ± 0.15"}
{"sequence": "GNIVAELAQDPQTMEHY [YCS4]", "protein stability index": "3.4 ± 0.17"}
{"sequence": "GNLIGVDPFDSDEEESV [SNU114]", "protein stability index": "3.14 ± 0.059"}
{"sequence": "GPAAAIEFEYDPWNKLK [RPB3]", "protein stability index": "3.08 ± 0.078"}
{"sequence": "GPSVESYELRNTTTYKS [SNF5]", "protein stability index": "2.9 ± 0.099"}
{"sequence": "GQCRPISKTVRFNVVKV [RPS11A]", "protein stability index": "2.93 ± 0.22"}
{"sequence": "GQGYRKVGIWPYFDYIF [YJL039C/NUP192]", "protein stability index": "3.21 ± 0.12"}
{"sequence": "GQPVNDFIDTATRHVLM [RPS3]", "protein stability index": "3.02 ± 0.06"}
{"sequence": "GQSAGKLAAIVEIIDQK [RPL14A]", "protein stability index": "3.29 ± 0.11"}
{"sequence": "GRDTTDYLKNIIVENSG [RPN2]", "protein stability index": "2.83 ± 0.17"}
{"sequence": "GRHHQEEELFQEMIEIS [SRP54]", "protein stability index": "3.3 ± 0.047"}
{"sequence": "GRILQNLLHSYMEKGTQ [YML103C/NUP188]", "protein stability index": "2.51 ± 0.096"}
{"sequence": "GRLDRKIEFPLPSEDSR [RPT5]", "protein stability index": "2.91 ± 0.21"}
{"sequence": "GRNGSNGNDESSEYETI [NUT1]", "protein stability index": "3.34 ± 0.11"}
{"sequence": "GRPQRKMMSFQANPTEE [RPB5]", "protein stability index": "3.2 ± 0.17"}
{"sequence": "GRQFCNRLSRIHLYMLT [YLR018C/POM34]", "protein stability index": "1.87 ± 0.05"}
{"sequence": "GRRWNELRRFESSINTH [SKI6]", "protein stability index": "2.66 ± 0.12"}
{"sequence": "GRSWDGKEHIVAALVSL [ECM29]", "protein stability index": "2.1 ± 0.063"}
{"sequence": "GRVTFIPLNRLSLDSDV [SMC3]", "protein stability index": "2.9 ± 0.053"}
{"sequence": "GRYMEALALYVDAYRRL [SRP68]", "protein stability index": "1.91 ± 0.11"}
{"sequence": "GSELVQKYVGEGARMVR [RPT1]", "protein stability index": "2.84 ± 0.085"}
{"sequence": "GSESDDSEGSIKQTSDE [ECM29]", "protein stability index": "3.57 ± 0.083"}
{"sequence": "GSGLLKLSEIILNINNS [SWI1]", "protein stability index": "2.69 ± 0.081"}
{"sequence": "GSIGSRKYSFNYSSLPS [YAR002W/NUP60]", "protein stability index": "2.39 ± 0.062"}
{"sequence": "GSLKLPNCPRPNMSICI [RPL1A]", "protein stability index": "2.67 ± 0.05"}
{"sequence": "GSNGELFGGRHYLFNTF [SWP82]", "protein stability index": "2.97 ± 0.29"}
{"sequence": "GSRMVRELFVMAREHAP [RPT6]", "protein stability index": "1.68 ± 0.073"}
{"sequence": "GSRVLIFSQMSRLLDIL [ISW2]", "protein stability index": "3.46 ± 0.11"}
{"sequence": "GTISKLENKENGLLNEI [SMC2]", "protein stability index": "3.28 ± 0.087"}
{"sequence": "GTLEYGTCFGGSKLEDM [RET1]", "protein stability index": "3.16 ± 0.072"}
{"sequence": "GTNAMLPSPESLKTKLN [SNF5]", "protein stability index": "1.97 ± 0.035"}
{"sequence": "GTNNARLAQLLRQLASY [RPN1]", "protein stability index": "3.09 ± 0.083"}
{"sequence": "GTPEATKGMITNLQRNV [NUT2]", "protein stability index": "2.85 ± 0.12"}
{"sequence": "GTPLFTFGKKADVTSNI [YOR098C/NUP1]", "protein stability index": "1.92 ± 0.046"}
